# From the nanobody polyreactivity screen of Harvey et al. (2022)
# Assay: yeast display, Sf9 membrane polyspecificity reagent, FACS + sequencing; frameworks hold sequencing errors
# Method in brief: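 Galactose-induced (36–48 hours) yeast carrying a synthetic nanobody display library were exposed to 10% biotinylated, detergent-solubilized Sf9 membrane reagent at 4 °C for 1 hour. FACS followed streptavidin microbead enrichment, using low and high (top ~1%) gates for expression (anti-HA) and reagent binding (streptavidin). Colony PCR, MiSeq 2 × 250 sequencing and CDR-length filtering followed. Labels for polyreactivity reflect the gate of origin.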
row,Sequence,polyreactivity (PSR sort gate)
1,QVQLVESGGGLVQAGGSLRLSCAASGRTFDVNAMGWYRQAPGKERELVAAITWDGGSTYYADSVKGRFTISRDNAKNTVYLQMNSLKPEDTALYYCAADFIQGAWWYVTYRYTYEYWGQGTQVTVSS,low polyreactivity
2,QVQLVESGGGLVQAGGSLRLSCAASGRTFDVYAMGWYRQAPGKERELVATISYRSARTYYADSVKGRFTISRDNAKNTVYLQMNSLKPEDTAVYYCNAQSWRLYGHCYYWGQGTQVTVSS,high polyreactivity
3,QVQLVESGGGLVQAGGSLRLSCAASGRTFDWNAMGWYRQAPGKERELVAAISGGGGSTYYADSVKGRFTISRDNAKNTVYLQMNSLKPEDTEVYYCATWNYYSYHRYDYWGQGTQVTVSS,high polyreactivity
4,QVQLVESGGGLVQAGGSLRLSCAASGRTFDYNAMGWYRQAPGKERELVAAISGSGTRTFYADSVKGRFTISRDNAKNTVYLQMNSLKPEDTAVYYCAASHGWSKSIFYYWGQGTQVTVSS,high polyreactivity
5,QVQLVESGGGLVQAGGSLRLSCAASGRTFDYNAMGWYRQAPGKERELVAAISSSGGSTYYADSVKGRFTISRDNAKNTVYLQMNSLKPEDTAVYYCDKRRNLWGYEYDSWGQGTQVTVSS,high polyreactivity
6,QVQLVESGGGLVQAGGSLRLSCAASGRTFDYNAMVWYRQAPGKERELVAAISGSGTRTFYADSVKGRFTISRDNAKNTVYLLMNSLKPVDTAVYYCAASHGWSKSIFYYWGQGTQVTVSS,high polyreactivity
7,QVQLVESGGGLVQAGGSLRLSCAASGRTFDYYAMGWYRQAPGKERELVAAIRLISGNRYYADSVKGRFTISRDNAKNTVYLQMNSLKPEDTAVYYCAARSDGVPSLYGGMDYWRQGTQVTVSS,low polyreactivity
8,QVQLVESGGGLVQAGGSLRLSCAASGRTFEDYTMGWYRQAPGKERELVAAITGGGSTNYADSVKGRFTISRDNAKNTVYLQMNSLKPEDTAVYYCAARRKGGHISYGYDYWGQGTQVTVSS,high polyreactivity
9,QVQLVESGGGLVQAGGSLRLSCAASGRTFEGNAMGWYRQAPGKERELVAAISWSGGSTYYANSVKGRFTISRDNAKNTVYLQMNSLKPEDTAVYYCAAVPVHTGSLYWGFTTGYDYWGQGTQVTVSS,low polyreactivity
10,QVQLVESGGGLVQAGGSLRLSCAASGRTFEQNAMGWYRQAPGKEREFVAAITASSGRTSYADSVKGRFTISRDNAKNTVYLQMNSLKPEDTAVYDCAADLADRERRHNYWGQGTQVTVSS,low polyreactivity
11,QVQLVESGGGLVQAGGSLRLSCAASGRTFEQNAMGWYRQAPGKERELVASITSVGSTDYADSVKGRFTISRDNAKNTVYLQMNSLKPEDTAVYYCAKTLCSQNYDFDYWGQGTQVTVSS,low polyreactivity
12,QVQLVESGGGLVQAGGSLRLSCAASGRTFERYAMGWYRQAPGKERELVAAISWSGSSTYYADSVKARFTISRDISKNTVYLHMNSLKPEDTAVYYCNALFQQRYGYWGQGTQVTVSS,low polyreactivity
13,QVQLVESGGGLVQAGGSLRLSCAASGRTFERYAMGWYRQAPGKERELVADISSSGSTNYADSVKGRFTISRDNAKNTVYLQMNRLNPEDTAVYYCAADYWRHWYWDVVEFDYWGQGTQVTVSS,high polyreactivity
14,QVQLVESGGGLVQAGGSLRLSCAASGRTFETNAMGWYRQAPGKERELVAAISRSGGSTRYADSVKGRFTISRDNAKNTVYLQMNRLKPEDTAVYYCAVRVGLGGGYWGQGTQVTVSS,high polyreactivity
15,QVQLVESGGGLVQAGGSLRLSCAASGRTFETYAMGWYRQAPGKERELVATIRSSGSTNYADSVKGRFTISRDNAKNTVYLQMNSLKPEDTAVYYCAAVYVYRTSYLISLYDYGYWGQGTQVTVSS,high polyreactivity
16,QVQLVESGGGLVQAGGSLRLSCAASGRTFEWYAMGWYRPAPGKERELVAVISSGGSTNYADSVKGRFTISRDNAKNTVYLQMNSLIPEDTAVYYCAVLQARDGYWLYLYDYWGQGTQVTVSS,low polyreactivity
17,QVQLVESGGGLVQAGGSLRLSCAASGRTFEYNAMGWYRQAPGKERELVAAISSSGGSTRYADSVKGRFTISRDNAKNTVYLQMNSLKPEDTAVYYCAKRGYTSSRRWIYDYRGQGTQVTVSS,high polyreactivity
